The values below come from article PMC12700550, “DLL4^+ neutrophils promote Notch1-mediated endothelial PANoptosis to exacerbate acute lung injury in sepsis” (The Journal of Clinical Investigation, 2025).

Values joined by “and” are separate entries in the source; they are usually repeats but may differ in a detail not shown here. Equal values may be shown once.

One experiment concerns c-caspase-3. The experiment in a line: c/t caspase-3 (apoptosis) in PVECs cocultured with neutrophils, Western blot. It is filed as cell-based, mouse. Conditions: for c/t caspase-3 (Figure 4H): 10 μM peptide, 16 h, individual replicates. On the procedure:
Wild-type PVECs (5 × 10^5) were cocultured with sorted DLL4^+ neutrophils (5 × 10^5) or DLL4^– neutrophils (5 × 10^5) and then treated with different dosages of peptides or 10 μM DAPT (Thermo Fisher Scientific), 10 μM NDI (GenScript), or 10 μM NDI scramble (GenScript). Notch1-knockdown PVECs (5 × 10^5) were cocultured with sorted DLL4^+ neutrophils (5 × 10^5). After 16 hours, neutrophils were washed away by PBS, and PVECs were collected for further experiments. Cell viability was evaluated by propidium iodide staining using the FITC Annexin V Apoptosis Detection Kit I (catalog 556547, BD Pharmingen). Cell death was quantified as the percentage of propidium iodide–positive cells by flow cytometry.
PVECs and lung tissue were collected in previous steps. Whole-cell proteins were extracted, and the protein concentration was measured using an ABC protein assay kit (catalog 5000002, Bio-Rad). Proteins were separated using NuPAGE 4%–12% Bis-Tris gels (Invitrogen), transferred to PVDF membranes, and immunoblotted with the antibodies indicated in the figure legends according to the manufacturer’s recommendations. The ZBP1 antibody (catalog PA5-20455; 1:1,000) used in this study was obtained from Thermo Fisher Scientific, and the c-GSDMD (catalog 10137S; 1:250), GSDMD (catalog 39754S; 1:1000), c-caspase-3 (catalog 9661L; 1:250), caspase-3 (catalog 9662S; 1:1,000), p-MLKL (catalog 37333S; 1:250), MLKL (catalog 37705S; 1:1,000), N1ICD (c-Notch1) (catalog 4147S; 1:250), and Notch1 (catalog 3608S; 1:1,000) antibodies were obtained from Cell Signaling Technology. GAPDH (catalog 60004-1-Ig; 1:10,000) and β-actin (catalog A5441, Sigma-Aldrich; 1:5,000) were obtained from ProteinTech. After the blots were incubated with primary antibodies, the membranes were washed 3 times, and the blots were subsequently incubated with the corresponding fluorescent secondary antibody (LI-COR). Bands were detected using an Odyssey FC Dual-Mode Imaging system 2800 (LI-COR).

A further experiment concerns IL-6. Briefly: Lung IL-6 mRNA, CLP mice. It is filed as in vivo, mouse. Conditions: 20 h; for lung IL-6 mRNA (Figure 6G): 10 mg/kg NDI, vs sham, individual mice. As for the experimental part:
Sepsis was induced in mice by cecal ligation and puncture (CLP) as described previously ([45], [46]). Mice were anesthetized with isoflurane to a surgical plane and placed in a supine position. CLP was performed through a midline laparotomy. The abdomen was shaved and disinfected. Through a 2 cm midline incision, the cecum was exposed and then ligated with a 4-0 silk suture 1 cm proximal from the distal cecal extremity. For 20-hour CLP experiments, the cecum was punctured twice with a 22-gauge needle. A small amount of cecal content was extruded through both holes, and the ligated cecum was returned to the peritoneal cavity. The wound was closed in layers. For 10-day sepsis survival studies, the cecum was punctured once with a 22-gauge needle. A small amount of cecal content was extruded. Mice were allocated to the vehicle and adoptive transfer of DLL4^+ neutrophils or DLL4^– neutrophils groups. Adoptive transfer mice received a retro-orbital injection of 1 × 10^6 cells per mouse DLL4^+ neutrophils or DLL4^– neutrophils in […] phosphate-buffered saline (PBS) immediately after abdominal closure in both the 20-hour experiments and the survival study. Vehicle groups received an equivalent volume of PBS, while treatment groups received NDI 10 mg/kg in […] PBS via retro-orbital injection after CLP. This dose was chosen primarily on the basis of our laboratory’s prior experience, we have consistently used this dose in mouse CLP models with reproducible efficacy and without observable toxicity ([39], [44]). Sham-operated animals underwent a laparotomy without CLP. After closure, the mice received a subcutaneous injection of 0.5 mL of normal saline to overcome surgery-induced dehydration. For 20-hour experiments, animals were not injected with antibiotics; however, for survival studies, animals were given 0.5 mg per kg body weight imipenem (lot 4D21K05, WG Critical Care LLC) subcutaneously in 0.5 mL saline once at the end of CLP. All mice were subcutaneously injected with a single dose of 0.1 mg/kg buprenorphine after CLP. […]

Experiment [1] relates to DLL4 expression on human neutrophils. Briefly: Frequency of DLL4^+ neutrophils (CD66^+DLL4^+), human peripheral blood neutrophils. Type of experiment: cell-based. The following applies: 12 h. From the text: Blood samples were obtained from the deidentified healthy human subjects. Written informed consent was obtained from all participants, and human subject protocols were approved by the Institutional Review Board of the North Shore University Hospital. Five milliliters of blood was collected by venipuncture and placed in EDTA blood collection tubes. We isolated the neutrophils from fresh blood samples by immunomagnetic cell separation using an EasySep Direct Human Neutrophil Isolation Kit (catalog 19666, Stem Cell Technologies). A total of 20 × 10^6 neutrophils were obtained from 5 mL of blood. Neutrophils (1 × 10^6 cells/mL) were stimulated with 1 μg/mL eCIRP for 12 hours. The cells were then stained with anti-CD66b (clone G10F5, catalog 984102, BioLegend) and DLL4 antibodies (clone MHD4-46, catalog 346506, BioLegend), and the frequencies (percentage) of DLL4^+ neutrophils were detected by flow cytometry.

A further experiment has as its system DLL3. Briefly: DLL3 mRNA in eCIRP-treated BMDNs, qPCR. Type of experiment: cell-based, mouse. Conditions: for DLL3 mRNA: DLL3-CIRP. On the procedure: mRNA was extracted from lung tissues with TRIzol reagent (Invitrogen, Thermo Fisher Scientific). An equal amount ([…]) of mRNA was reverse-transcribed into cDNA using the reverse transcriptase enzyme (Invitrogen, Thermo Fisher Scientific). qPCR was performed from the diluted cDNA templates with forward and reverse primers (Supplemental Table 4) and SYBR Green PCR Master Mix (Applied Biosystems, Thermo Fisher Scientific) using an Applied Biosystems 7300 real-time PCR machine. Mouse β-actin served as an internal control gene for normalization. Relative expression of mRNA was represented as fold change in comparison with the sham group.
BMDNs (1 × 10^6) were treated with eCIRP (1 μg/mL) for 12 hours, and DLL1, DLL3, and DLL4 were analyzed by qPCR.

ECAGSPCHNGGTCEDGI [NDI]: in the experiment with c-caspase-3 (10 μM NDI, DLL4^+ neutrophil coculture), the “effect on c-caspase-3” value is given as “significantly reduced these markers of PANoptosis”. Also, the “c/t caspase-3 (Figure 4H)” value in the experiment with c-caspase-3 (DLL4^+ neutrophil coculture) was 0.8975 and 0.9855 and 1.108 and 1.088 and 1.039 and 1.038; in the experiment with c-caspase-3 (DLL4^– neutrophil coculture) it was 0.9343 and 1.21 and 1.29 and 1.079 and 1.0374 and 1.09. Further, the “effect on lung IL-6 mRNA” value with IL-6 (DLL4^+ neutrophil-injected CLP mice, 10 mg/kg) is “significantly decreased the mRNA expression of TNF-α, IL-6, and KC in lung tissues”. Further, the “lung IL-6 mRNA (Figure 6G)” value was 1.4984 fold change and 1.1005 fold change and 1.349 fold change and 4.056 fold change and 2.97 fold change and 2.032 fold change and 0.08381 fold change and 1.663 fold change and 5.861 fold change and 2.132 fold change and 6.132 fold change in the experiment with IL-6 (DLL4^+ neutrophils + CLP); 2.369 fold change and 4.979 fold change and 4.806 fold change and 5.561 fold change and 5.531 fold change and 4.244 fold change and 1.214 fold change and 2.2297 fold change and 4.655 fold change in the experiment with IL-6 (DLL4^– neutrophils + CLP).

B1: eCIRP: extracellular cold-inducible RNA-binding protein; recombinant murine, produced in our laboratory (protein, UniProt P60824 1-172, looked up)
Cold-inducible RNA-binding …: MASDEGKLFVGGLSFDTNEQALEQVFSKYGQISEVVVVKDRETQRSRGFGFVTFENIDDAKDAMMAMNGKSVDGRQIRVDQAGKSSDNRSRGYRGGSAGGRGFFRGGRSRGRGFSRGGGDRGYGGGRFESRSGGYGGSRDYYASRSQGGSYGYRSSGGSYRDSYDSYATHNE
As to B1, in experiment [1] (human neutrophils 1 × 10^6/mL, eCIRP 1 μg/mL, individual replicates), the “frequency of DLL4^+ neutrophils (Figure 1K)” value is 16% and 10.3% and 4.81% and 7.94% and 7.27% and 10.4% and 15.89% and 20.5% and 19.83%. The “effect on frequency of DLL4^+ neutrophils” value in experiment [1] (human peripheral blood neutrophils, 1 μg/mL) is “significantly increased the frequency of DLL4^+ neutrophils”. For the same molecule, the “effect on DLL3 expression” value in the experiment on DLL3 (BMDNs, eCIRP 1 μg/mL, 12 h) is reported as “no significant induction of DLL1 or DLL3”. In addition, the “DLL3 mRNA” value is 0.2832 in the experiment on DLL3 (replicate 1); 1.673 in the experiment on DLL3 (replicate 2); 0.009923 with DLL3 (replicate 3); 0.01002 in the experiment on DLL3 (replicate 4); 0.02772 in the experiment with DLL3 (replicate 5); 0.1715 in the experiment on DLL3 (replicate 6).
